± gives the uncertainty stated by the source.
Assay: amyloid nucleation score (Sup35N fusion, yeast selection) (log enrichment); library NNK2; higher = more nucleation; inactive = no reads after selection
Method in brief: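 For the nucleation score, DiMSum gave the log enrichment of output over input reads, centred on the mode score of non-aggregating sequences. Psi-negative yeast expressing Sup35N fused to peptides of 20 random codons were induced with 100 μM copper sulfate for 24 hours and grown 7 days at 30°C on medium lacking adenine and uracil. Input and output plasmid inserts were Illumina-sequenced, and sequences with under 100 input reads were excluded.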

Row | Substance | amyloid nucleation score
1 | NMIYYMFEYAWPCIVER | 7.37 ± 0.08
2 | NMLKGMCWVTLCIWMYMRLC | 4.09 ± 0.057
3 | NMMCISSHGSTTSGFLRSSL | 3.52 ± 0.062
4 | NMNGF | -0.532 ± 1
5 | NMRTNLWNIIAFLSSRSIAQ | 0.857 ± 0.35
6 | NMSCKFSNPWNWFD | -0.11 ± 0.39
7 | NMWTFRSIMIPALFYEIFIA | -1.75 ± 0.54
8 | NNDDQSFCAWVFNDVQ | 0.056 ± 0.6
9 | NNDYFTEGAGKGVTLIGALG | 4.443 ± 0.041
10 | NNGMFGNFSKSDYFDKWRYM | inactive
11 | NNKLSRV | -0.661 ± 1.1
12 | NNLKLCNRTMCLVYEVCVTD | -1.23 ± 0.62
13 | NNRYELCSSQH | inactive
14 | NNSGSNKSD | -0.509 ± 0.78
15 | NNVSLPYMSSIVIIGLIRR | 7.193 ± 0.057
16 | NPSFNESFLSGSQKVQILMG | -0.509 ± 1.1
17 | NPSLELYKYISAIDMGINPP | inactive
18 | NPTLGHKNVFVRYSF | 2.9 ± 0.14
19 | NPYINLLRFIDSDSSALV | -1.35 ± 1.1
20 | NQAYR | 0.12 ± 0.43
21 | NQCAVQGLYRRRMVHDRQED | -0.52 ± 0.78
22 | NQVFSIALAQNRSRHFFLGG | inactive
23 | NRADGDKFSSSPSPTWKYME | -0.081 ± 1.1
24 | NRCLGIT | 0.231 ± 0.48
25 | NRECCTSDLRIMNVLRPL | -0.028 ± 0.18
26 | NREIGISWEGWMMLKILQYK | inactive

Row | Substance | amyloid nucleation score
27 | NRFDDVSDDVKTCC | 5.82 ± 0.059
28 | NRGFFGSYGVPELQNMDQFE | 0.153 ± 0.79
29 | NRIGLCRGLNQFFLPGMWSR | 0.283 ± 0.26
30 | NRISGLGMSSKGKRGKVMLK | 0.493 ± 0.46
31 | NRKFARWLLLT | -0.492 ± 0.61
32 | NRLSELGPCFHLFTSV | 0.089 ± 1.1
33 | NRMRVMAWCAILNKELSGGK | 0.93 ± 0.51
34 | NRPLCSFDTEFDLYEQIHLR | 4.38 ± 0.086
35 | NRSTRGWGVVSTLCYRLSSF | inactive
36 | NRWLYFHS | -0.678 ± 0.76
37 | NRWYKLRLYICYDLRIAVFN | -1.58 ± 1.1
38 | NSDRL | -0.794 ± 0.45
39 | NSFVCMLPGVFVKCRCSNAD | 4.832 ± 0.044
40 | NSGYIGLGLSF | -0.224 ± 0.65
41 | NSLANDTQIRKNCLSIV | -0.474 ± 1.1
42 | NSLLVFQNNFGIETNGVNII | 0.94 ± 0.74
43 | NSSRL | -0.166 ± 1.1
44 | NSTFLCLVGFFCLVFSLRQG | 3.77 ± 0.1
45 | NSTLRSLYTVFFIRMLQMVG | -0.753 ± 0.36
46 | NSVRFSRLKRFSNCMFNHWR | 0.284 ± 0.65
47 | NTATSN | -0.22 ± 1.1
48 | NTFWLGFPYSLLQALCHALD | 0.447 ± 0.53
49 | NTLEPWMKYSMCLFDKISPT | -0.391 ± 0.49
50 | NTLITRVHHDQLPRLSDLLL | 1.28 ± 0.38
51 | NTRCQFSTIGHFAASHDRRD | 1.17 ± 0.21
52 | NTSIQQIPLMSRLGVAFVIW | -0.781 ± 0.54

Row | Substance | amyloid nucleation score
53 | NTTQAV | -0.249 ± 1
54 | NTVHWSDSCRLFPHRDQQCF | -0.694 ± 0.61
55 | NTWTCAQPRVTLLAQLYELN | 3.1 ± 0.12
56 | NTYYFKALT | 0.072 ± 1.1
57 | NVAHGW | -0.322 ± 0.44
58 | NVFKGPVLHGFRDRISWVKD | inactive
59 | NVGTRWSGDARNMFSSKGGK | 0.83 ± 0.31
60 | NVGYWYCLD | 8.808 ± 0.033
61 | NVHDEWKGFVSGTCGKVEKA | 0.355 ± 0.29
62 | NVHFFCWCFLNLCV | -0.558 ± 1
63 | NVLDASRNLE | 1.14 ± 0.42
64 | NVLGQNAQPPNMDFYVTMIC | 0.508 ± 0.56
65 | NVPFCIVV | 0.213 ± 0.57
66 | NVRDMCLSACTSQWYYYFAV | 0.371 ± 0.37
67 | NVVKTWPIYIMRPLWTAHSN | -0.641 ± 0.31
68 | NWDKKKGRDR | inactive
69 | NWDSINFYRAVSYCDHIFYV | inactive
70 | NWLGCEMPIGGSSSVSAMYL | 1.17 ± 0.21
71 | NWLQDK | 1.61 ± 0.55
72 | NWLQGVYCCGKVIGSLTSTD | 8.775 ± 0.043
73 | NYFVYNFLVV | 4.95 ± 0.099
74 | NYIMWLWQQTGWSNGWCALI | 0.312 ± 0.61
75 | NYIWFVNPYRRFSHVNHITN | -0.176 ± 1.1
76 | NYKNVVSFLVR | inactive
77 | NYMRYTYHSMCVLWFTVGEC | 0.864 ± 0.41
78 | NYPSVGSDIARLLRLVTRRI | -0.313 ± 0.76

Row | Substance | amyloid nucleation score
79 | NYTWSNTRLNYPLRVNATNH | -1.01 ± 1.1
80 | NYWCMVV | 5.24 ± 0.075
81 | PAITFSSYQSIANYWRGPRM | 7.899 ± 0.026
82 | PARLCAVVL | 0.066 ± 0.76
83 | PASNWIRYRMTFQDGPYVKR | 0.373 ± 0.66
84 | PCITRTARSQIVTFKRG | -0.35 ± 1.1
85 | PCKNIMVYNSLTDAWPCLYM | 0.093 ± 0.8
86 | PCLKGVITLLLKGPGPHRVN | 0.091 ± 0.42
87 | PCRRYRVLFWGGSLVSSMGK | 3.3 ± 0.07
88 | PDGAWARLSKSGAEAYLSNF | -0.299 ± 1.1
89 | PDHKLARTIYWAPCTMDWVI | -0.057 ± 0.61
90 | PDLRKDYAWLLLFLVRVRGD | 4.43 ± 0.085
91 | PDSMGKVIYYKSESCFYSRG | 2.72 ± 0.086
92 | PDWMRGSSEYWSVGPRYCNS | 0.355 ± 0.13
93 | PFFVV | -0.791 ± 1.1
94 | PFSWVASDNTYQSTSLSIVH | 0.995 ± 0.51
95 | PGFKSCIP | 0.598 ± 0.28
96 | PGHNQKERLLQLRSI | inactive
97 | PGRDTVTLLHLCHFGVGSGF | 0.165 ± 1
98 | PGSNALVGLTIRCNVILKGG | 4.68 ± 0.086
99 | PGTKLLSSVNAQRDSLKKGG | -0.478 ± 0.4
100 | PGYVAWRIFFFGPVI | 0.007 ± 1.1
101 | PHHWTQWSVKMSGFRSLLRR | 1.19 ± 0.13
102 | PHPIDNKRMTTPNIADAPPR | 0.56 ± 0.74
103 | PIGLYRSMATQVNCC | 3.71 ± 0.094
104 | PIITFNTI | -0.637 ± 1.1

Row | Substance | amyloid nucleation score
105 | PISWGRLFNMVPR | -0.98 ± 0.55
106 | PKNLILLSHFYSEAVCPGAR | -0.927 ± 1.1
107 | PLGSMTNDTTDRNFEVSGRG | -0.106 ± 0.31
108 | PLGTSTTSFRSAVFQGMTWL | inactive
109 | PLGYGMGLRGLFGLLDSYFG | 0.19 ± 0.8
110 | PLISRYDYFVCIRILSHSDN | 0.98 ± 0.81
111 | PLLVLVNFLSGKSPQAHCSH | 3.07 ± 0.077
112 | PLQPNAIRRSMVSF | 0.894 ± 0.43
113 | PLSPFTHGLSQYIALEIDGQ | -0.254 ± 0.63
114 | PMEWKPALPKTIVADARMRG | 0.48 ± 0.3
115 | PMRKADRYSSSSET | -0.479 ± 1
116 | PNRTFLLKVGA | -1.1 ± 1.1
117 | PNSGFSGNCIKVIQHNLQG | inactive
118 | PNSLYGYKIAFSLDFFVRVY | inactive
119 | PNWPR | 0.512 ± 0.66
120 | PPCYALDRFLSGSLTVLSPV | -0.36 ± 0.35
121 | PPDSTWYC | 0.452 ± 0.53
122 | PPGFMYLYCGLYAQSSRSSW | 0.546 ± 0.5
123 | PPHRAYGILMMNTRRTSSIT | 0.604 ± 0.37
124 | PPLYSFVQYMRGFANNVISG | 0.227 ± 0.49
125 | PPNRVNGNW | 0.853 ± 0.57
126 | PPNVLDCFNVL | -0.501 ± 0.64
127 | PPWCLNVCDMLRRSHLAFKR | -0.213 ± 1.1

Source: the supplement of paper PMC12042874
